# Results from the DeepSol protein solubility set.
# Experiment: soluble on expression in E. coli; label from the status in PepcDB or PDB records
row,Sequence,soluble on expression in E. coli
1,MVSGYTQSEIDSIAGWLRAGDSASKAAAKLSTMRGRAVSRNAIIGIVHRNAKLAAIGFGRAKSSPASEGSSTYTPEEIKLVADCLKAKRNYVQIAQRLALKSGRIISRFGVKSLIRRTPELNEIGFRGKKGRPSDKKKAAPGQLPGRLFIAATADIDRDPSAFDYLTRPAVRALASQPHFAAMRFVDCLPARCRAPLSYDLEERPGPDMLCCGHLAMPSRSYCAYHEIRLTARKAEFIAEAALEHHHHHH,soluble
2,MVSIRRSFEAYVDDMNIITVLIPAEQKEIMTPPFRLETEITDFPLAVREEYSLEAKYKYVCVSDHPVTFGKIHCVRASSGHKTDLQIGAVIRTAAFDDEFYYDGELGAVYTADHTVFKVWAPAATSAAVKLSHPNKSGRTFQMTRLEKGVYAVTVTGDLHGYEYLFCICNNSEWMETVDQYAKAVTVNGEKGVVLRPDQMKWTAPLKPFSHPVDAVIYETHLRDFSIHENSGMINKGKYLALTETDTQTANGSSSGLAYVKELGVTHVELLPVNDFAGVDEEKPLDAYNWGYNPLHFFAPEGSYASNPHDPQTRKTELKQMINTLHQHGLRVILDVVFNHVYKRENSPFEKTVPGYFFRHDECGKPSNGTGVGNDIASERRMARKFIADCVVYWLEEYNVDGFRFDLLGILDIDTVLYMKEKATKAKPGILLFGEGWDLATPLPHEQKAALANAPRMPGIGFFNDMFRDAVKGNTFHLKATGFALGNGESAQAVMHGIAGSSGWKALAPIVPEPSQSINYVESHDNHTFWDKMSFALPQENDSRKRSRQRLAVAIILLAQGVPFIHSGQEFFRTKQGVENSYQSSDSINQLDWDRRETFKEDVHYIRRLISLRKAHPAFRLRSAADIQRHLECLTLKEHLIAYRLYDLDEVDEWKDIIVIHHASPDSVEWRLPNDIPYRLLCDPSGFQEDPTEIKKTVAVNGIGTVILYLASDLKSFA,soluble
3,MVSLRELRGGLMSNKYCQALVELRNKPAHELKEVGDQWRTPDNIFWGINTLFGPFVLDLFTDGDNAKCAAYYTAEDNALAHDWSERLAELKGAAFGNPPYPWLEHHHHHH,not soluble
4,MVSLRSGKRVSRPSPSTPLEKPAETSTNPMETPKRAVKGQKTVEEKEKLPISLRKSERLAKNSGENSSAEIAEEHKEIVAPSQENSVDDDAESTQLSVDVFADPSDFEDDDDEVVPETDYEDNNEEPKNDQNPVEIPDNSDSDDDEPMEISSKNPVTSIENPENSDSDDDEPMEATSKAPEMSVAEPKSIIEKLLEKKAEKSAKLAAKKLKKRSKKKEAKKISDGVFQVKMKKSKAKFNVVTLKAGVQNILEPQINFREELLKSRTAGTRLADTEKFLQRGKWVSKR,soluble
5,MVSLRTSNRGIVMIDAVVTWVDGADPAHHAKRLRHQGEAGVHQAATAPTRFAHSGEIRFCVLSLLRFCPFVERIHIVTDDQHPAVLDPILDDPHWRDRIAVVDHRAIYGEHADLLPVFSSRSIETMIHRIPGLAPRFIYLNDDIFVGRPLDESHFFDGDRAVLRGRMQPFPNPLVTRLKRWLKRERPGYKTAQQAAARLTGRTSDYFLTEHQPHPMHRDRLASFYAGDPQALRRQAGHRFRSADQVSPIGLANHLEIEARAVIAPPLDVGYIRPGRPTGTALARTMERLCANGYASFCVQSLDAMSEADRRCVLEGLERHYALEHHHHHH,soluble
6,MVTEFAKEMIKNADSCGAQDIYVIPRQDNYELYMRVGQERRLIDVYRPDFMASLIGHFKFVAGMMVGEKRRSQLGSCDYDCGDGHLVSLRLSTVGDYRGLESLVIRILH,not soluble
7,MVTFLGNPVSFTGKQLQVGDKALDFSLTTTDLSKKSLADFDGKKKVLSVVPSIDTGICSTQTRRFNEELAGLDNTVVLTVSMDLPFAQKRWCGAEGLDNAIMLSDYFDHSFGRDYALLINEWHLLARAVFVLDTDNTIRYVEYVDNINSEPNFEAAIAAAKAL,soluble
8,MVTIANDFLTVKISRHGAELTSIKDNLTGRERLWQADPAVWGRHAPVLFPIVGALADNQYHYAGKTYHMGQHGFARDRDFTVLSATPFKASFVLKDDDKTRAMYPFAFRLIITFALENNNLHVTYHVDNPDKSEPLFFSIGGHPGFKVPMTPDTQFSDYYLNFKPRKSLVQIPLVAGEGIDYTHRTLAATDANLALTHETFDHDALIFALLGKTTFNLVSDKTKHGVSVTMTDTPYLGVWSPYPTTGDFVCIEPWWGIADTIGSTGDLTRKLGINRLEPGTAFEKGYMISIFLEHHHHHH,not soluble
9,MVTPVSICNYISLPDDFPARNIAPQVKEVLKDFIDALSTIICDEEWRTSLNTNSATKKIFNNLDNLSYIQRTSFRGNDTLYNEKVQFKLTYPVKNGRHKENIEFQVVINLSPIYLDNFRHDGEINIFCAPNPKPVTMGRVFQTGVERVLFLFMNDFIEQFPMINLGAPIKRAHTPHIEPLPPDHHTAADYLRQFDLLVLNFISRGNFVILPRLWNNSEVHRWFVNKDPNLITAILDITDSELKEDLLQSLMDSLGSNKHVQPEVCICFLSLLAEQESPHFQDLFLFFANMLLHYHQFMNPNESDLNDVLMPASLSDDKIIKHMARRTLKLFVKNETPPKVTHEDLVKNRPRSPVRPPIPATAKTPDLPERH,not soluble
10,MVTVVDRVTDRRLRHPEKAHRPDTSVQKKPDWIRVKAPTSQVYKETHGIVRAHKLVTVCEEAGCPNIGECWSQRHASFMILGEICTRACAFCNVATGIPFAVDENEPERVADAVARMELKHVVITSVDRDDLADGGAEHFAKVIYAIRRKAPKTTIEVLTPDFRHKDGALEIVVAAKPDVFNHNLETVPSKYLKVRPGARYFHSIRLLQRVKELDPTIFTKSGIMVGLGEERNEILQLMDDLRSADVDFMTIGQYLQPTRKHHPVIRFVPPEEFESFAKIGKVKGFLHMASNPLTRSSHHAGDDFAILQKARDEKFALQR,not soluble
11,MVVRVDETTAPLFRQIAALIEDSIVEGSLSSGERAPSTNELAAFHSINPATARKGLQLLVDAGVLEKKRGLGMFVTDNAVELIRGRRRDDFAAAYLAPLVDEAVKLTISKTELHNLIDRVAESRGLYE,soluble
12,MVWSATSRTKYSIKKSFFGCSMIELSNVNLHYPVPGHFSHSLQTTISSKIGGVLGSSSAKDKEMKYVHALRDINLKLEDSSRLGIIGHNGAGKTTLLRLLSQVYPPTSGKVTIEGKISALTDFTLGMDPNATGLKNIEFRLVFMGCTFKEAQQAVEEIVAFSELGEFINLPVRTYSTGMFLRLAFAISTHFTPDILILDEVIGAGDETFREKALSRLESLIKKSRMVVLSSHDLNAIKQYCDQAIVMEKGEIVFNGTPQSCIDYYLNSVKK,not soluble
13,MWAVIRMRTFRRSTRNAVSRMRKPKPRASAKQRSLERHFGSRQPTKNKFLNAIYWGIRRCQYFLCCYDDEVEDELEDASANPFNTQPPGLDQLVQLTGFNRKWIMFMYRNFKQKCSNGRMTDSQWRILFRSIFPQANDSAFIDRLYAAIVKKKQHPQITFEDLILCLWELSEDGKTSEMGNYHINSSARAQFAFQLMDEEGKGRVDEPGFYKYTRCVFALTAVNKPCTDQIIDASTIGLPASSIYRSTSVDDVLKPMSPLIARFSSKRFKELDTDRDGFITVRDIERELEIQKNEAICLKSLKDFSFEDLKNEEDDDDEDDQDTNPLLSESSSFKKDV,not soluble
14,MWHGMGDCCCNPLSMGSVKKLFEEQIPGVYVHSLQLGSSITKDIEHGFYANTNELVYMACIKIKNDPELKNGYNAIGFSQGAQFLRAVAQRCPNPPMKNLVSVGGQHQGVFGAPYCIGDNIMCNGVRRLIDLGAYLPFVQKRVVQAQYWHDPNQVEEYKKRSIFLADINNENNNNPTYKRNLLSLKNLVLVKFNQDHMVVPKDSSWFGFYKDGDIDTILPMNETDLYKEDRIGLKKLHESGRIHFMDVDGDHLQIPRSVLVNDIIKKYFM,not soluble
15,MWKRIALFLVVLLLAACGKTIPDAKNWPVEDFTFVDQTGKPFGLRDLKGKVWVADFIFTNCETVCPPMTAHMAKLKQMAKKEGLDVEFVSFSVDPEVDTPEKLAAYAKQFTDDLSNWHLLTGYSPAEISELAQKSFKTIVQKPANDDQVVHGTSFYLVGPDGKVVQTYSGVQDVPYETILEHIKIVQSSQ,not soluble
16,MWLPTPLGPLWLEVSPLGVRRLEPALYPRGPEAEGALALRVREAVQAYFAGERPDFLDLPLDYTGLSPARLRLYERVRLVPYGRTVSYGALGRELGLSPRAVGAALRACPFFLLVPAHRVIHADGRLGGFQGQEGLKLWLLRFEGAL,soluble
